The values below come from patent publication US20240287208A1 (CONCEPT TO MEDICINE BIOTECH, published 2024).

Changes are numbered by the printed parent chain.

Experiment [1] addresses T1, human CD40 on the cell surface (human, UniProt P25942 21-277).
T1 construct: whole, on cells; also called cell surface CD40; Jurkat-CD40
Kind of experiment: FACS, Jurkat cells overexpressing human CD40, PE anti-human IgG, MFI. Here is the method:
To evaluate the binding affinity of 5T4-CD40 bispecific antibodies to cell surface CD40, bispecific antibodies with formats of b 1 (42p155z2), b12 (42p155z2), b13 (42p155z2), b16 (42p155z2), b17 (42p155z2) and b18 (2p1130) were tested in Jurkat cell lines that overexpressed CD40 by FACS. A total number of 1×10⁵ Jurkat-CD40 cells in each well were incubated with 5-fold serially diluted antibodies starting from 100 nM for 30 minutes at 4° C. in FACS buffer. After wash by FACS buffer, PE conjugated-anti-human IgG antibody was added to each well and incubated at 4° C. for 30 minutes. After wash, MFI of PE was evaluated by MACSQuant Analyzer 16.

In experiment [2] the target is T1, human CD40 on the cell surface. Description: cell-based or functional assay.
The next experiment has as its target T2, human OX40 protein (human, UniProt P43489 29-216, limits assumed).
T2 sequence (looked up): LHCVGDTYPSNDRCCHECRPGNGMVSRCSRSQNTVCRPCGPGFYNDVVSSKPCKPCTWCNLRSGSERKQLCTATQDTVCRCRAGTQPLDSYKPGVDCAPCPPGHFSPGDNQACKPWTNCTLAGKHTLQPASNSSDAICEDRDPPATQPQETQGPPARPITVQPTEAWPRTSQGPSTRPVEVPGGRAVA
Kind of experiment: ELISA, plate-coated protein. As to the method:
(§1) To evaluate the cross reactivity of chimeric anti-CD40 antibodies to other family members of TNF receptors, the ELISA binding towards human 4-1BB and human OX40 were performed.
(§2) Briefly, microtiter plates were coated with human 4-1BB protein or human OX40 protein at 1 μg/ml in PBS, 100 μl/well at 4° C. overnight, then blocked with 150 μl/well of 1% BSA. Ten-fold dilutions of 42p155, 2p834, 2p931, 42p655, 2p1294, 2p957, 42p495, 3p78, 2p415, 2p442, 2p551, 2p80 and 2p1130 antibodies starting from 100 nM were added to each well and incubated for 1 hour at RT. The plates were washed with PBS/Tween and then incubated with Anti-Human IgG (H&L) (GOAT) Antibody Peroxidase Conjugated for 30 mins at RT. After washing, the plates were developed with TMB substrate and analyzed by spectrophotometer at OD 450 nm.

Another experiment addresses T3, human 4-1BB protein (human, UniProt Q07011 24-186).
T3 construct: also called 4-IBB
Description: ELISA, plate-coated protein. As to the method:
as §1, §2
Background: An ELISA detects its analyte on a solid surface through an enzyme-linked reagent.

Experiment [3] deals with T4, human CD40-His protein (human, UniProt P25942 21-193).
T4 construct: His-tagged recombinant protein; also called human CD40-his tag; recombinant CD40 protein
Kind of experiment: BLI Octet RED96e, antibody captured on AHC, CD40-His as analyte. As to the method:
(§3) The binding of the humanized 42p155 and 2p442 antibodies to recombinant human CD40 protein (human CD40-his tag) was tested by Biacore and Octet, respectively, using a capture method.
For humanized 2p442 monoclonal antibodies, 2p442z8, 2p442z9 and 2p442z10 were captured using AHC biosensor. A serial dilution of human CD40-his tag protein was incubated with captured antibody for 5 mins. The antigen was allowed to dissociate for 10 min. All the experiments were carried out on an Octet RED96e. Data analysis was carried out using Octet Analysis Studio 12.2 software.
For orientation: BLI is a label-free optical method that tracks binding on a fibre tip over time.

The target of experiment [4] is T1, human CD40 on the cell surface. Description: FACS, Jurkat cells overexpressing human CD40, PE anti-human IgG, MFI. Here is the method:
To evaluate the binding affinity of humanized 2p442 monoclonal antibodies to cell surface CD40, 2p442z8, 2p442z9, 2p442z10 and parental 2p442 were tested in Jurkat cell lines that overexpressed CD40 by FACS. A total number of 1×10⁵ Jurkat-CD40 cells in each well were incubated with 3-fold serially diluted antibodies starting from 100 nM for 30 minutes at 4° C. in FACS buffer. After wash by FACS buffer, PE conjugated-anti-human IgG antibody was added to each well and incubated at 4° C. for 30 minutes. After wash, MFI of PE was evaluated by MACSQuant Analyzer 16.
This is another data set of the same source.

In experiment [5] the target is T5, cynomolgus CD40-His protein (cynomolgus, UniProt G7PG38 21-193).
T5 construct: His-tagged recombinant protein; also called cyno CD40 antigen
Kind of experiment: ELISA, plate-coated cynomolgus CD40-His. Here is the method: (§4) To evaluate the binding activity of clones 42p155, 2p834, 2p931, 42p655, 2p1294, 2p957, 42p495, 3p78, 2p415, 2p442, 2p551, 2p80 and 2p1130, the chimeric monospecific antibody (mAb) from these clones were subjected to ELISA test, along with selicrelumab, the clinical benchmark anti-CD40 agonist antibodies.
as §2, with “The binding affinity of these clones to cynomolgus CD40 was also tested. Microtiter plates” for “Briefly, microtiter plates”, “with cynomolgus CD40-His” for “with human 4-1BB protein or human OX40”, “at 1.0” for “at 1”, “100 µl/well” for “100 μl/well”, “150 µl/well” for “150 μl/well”, “nm. As shown in FIG. 1B and Table 2, all these clones bound to cynomolgus CD40 at high activity, showing good cross-reactivity between human and cynomolgus CD40 proteins.” for “nm.”

Experiment [6] concerns the target T4, human CD40-His protein. Description: ELISA, plate-coated human CD40-His. As to the method: as §4
as §2, with “human CD40-His” for “human 4-1BB protein or human OX40”, “at 1.0” for “at 1”, “150 µl/well” for “150 μl/well”

Experiment [7] has as its target T4, human CD40-His protein. Kind of experiment: SPR Biacore T200, antibody captured on Protein A, CD40-His as analyte. Here is the method: as §3
For humanized 42p155 monoclonal antibodies, 42p155z2 and 42p155z3 were captured using Protein A chip. A serial dilution of human CD40-his tag protein was injected over captured antibody for 3 mins at a flow rate of 10 μl/min. The antigen was allowed to dissociate for 6 min. All the experiments were carried out on a Biacore T200. Data analysis was carried out using Biacore T200 evaluation software.

T4 sequence (P25942 21-193 limits assumed): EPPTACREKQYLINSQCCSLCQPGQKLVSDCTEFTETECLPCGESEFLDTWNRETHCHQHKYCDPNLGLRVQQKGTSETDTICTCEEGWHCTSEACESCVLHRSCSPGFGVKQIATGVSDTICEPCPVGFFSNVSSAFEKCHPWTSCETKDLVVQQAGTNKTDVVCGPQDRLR
T1 sequence (P25942 21-277): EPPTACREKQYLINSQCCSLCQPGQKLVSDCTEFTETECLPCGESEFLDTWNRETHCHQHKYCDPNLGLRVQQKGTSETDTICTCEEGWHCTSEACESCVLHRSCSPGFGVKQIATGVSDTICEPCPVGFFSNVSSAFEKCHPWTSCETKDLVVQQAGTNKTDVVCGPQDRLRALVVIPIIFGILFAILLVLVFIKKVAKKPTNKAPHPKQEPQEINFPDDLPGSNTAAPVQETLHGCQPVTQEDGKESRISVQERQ

B1: b12 (42p155z2) anti-5T4/CD40 bispecific antibody (bispecific antibody, human IgG1, kappa, N297A)
heavy 1: EVQLQQSGPELVKPGASVKISCKASGYAFSSSWMNWVKQRPGKGLEWIGRIYREDGHTNYNGKFKGKATLTADKSSTTAYMQLTSLTSEDSAVYFCANGGAMDYWGQGTSVTVSSASTKGPSVFPLAPSSKSTSGGTAALGCLVKDYFPEPVTVSWNSGALTSGVHTFPAVLQSSGLYSLSSVVTVPSSSLGTQTYICNVNHKPSNTKVDKKVEPKSCDKTHTCPPCPAPELLGGPSVFLFPPKPKDTLMISRTPEVTCVVVDVSHEDPEVKFNWYVDGVEVHNAKTKPREEQYASTYRVVSVLTVLHQDWLNGKEYKCKVSNKALPAPIEKTISKAKGQPREPQVCTLPPSREEMTKNQVSLSCAVKGFYPSDIAVEWESNGQPENNYKTTPPVLDSDGSFFLVSKLTVDKSRWQQGNVFSCSVMHEALHNHYTQKSLSLSPGK
light: DIQMTQSTSSLSASLGDRVTISCRASQDISNYLNWYQQKPDGTVKLLIYYTSRLHSGVPSRFSGSGSGTDYSLTISNLEQEDIATYFCQQDNTLPWTFGGGTKLEIKRTVAAPSVFIFPPSDEQLKSGTASVVCLLNNFYPREAKVQWKVDNALQSGNSQESVTEQDSKDSTYSLSSTLTLSKADYEKHKVYACEVTHQGLSSPVTKSFNRGEC
heavy 2: not shown
notes: also called 1+1 b12 format
Turning to B1, the binding result in [1] is “binds”.

B2: b17 (42p155z2) anti-5T4/CD40 bispecific antibody (bispecific antibody, human IgG1, kappa, N297A)
heavy 1: EVQLQQSGPELVKPGASVKISCKASGYAFSSSWMNWVKQRPGKGLEWIGRIYREDGHTNYNGKFKGKATLTADKSSTTAYMQLTSLTSEDSAVYFCANGGAMDYWGQGTSVTVSSASTKGPSVFPLAPSSKSTSGGTAALGCLVKDYFPEPVTVSWNSGALTSGVHTFPAVLQSSGLYSLSSVVTVPSSSLGTQTYICNVNHKPSNTKVDKKVEPKSCDKTHTCPPCPAPELLGGPSVFLFPPKPKDTLMISRTPEVTCVVVDVSHEDPEVKFNWYVDGVEVHNAKTKPREEQYASTYRVVSVLTVLHQDWLNGKEYKCKVSNKALPAPIEKTISKAKGQPREPQVCTLPPSREEMTKNQVSLSCAVKGFYPSDIAVEWESNGQPENNYKTTPPVLDSDGSFFLVSKLTVDKSRWQQGNVFSCSVMHEALHNHYTQKSLSLSPGKGGGGSGGGGSGGGGSGGGGSEVQLVESGGGLVQPGGSLRLSCAASGFAFRSYTMSWVRQAPGKGLEWVSTITHNGAITTYAESAQGRFTISRDNSKNTLYLQMNSLRAEDTAVYYCAQGGGSNYYRESWGQGTQVTVSS
light: B1 light
heavy 2: not shown
notes: also called 1+2 b17 format
For B2, the binding result in experiment [1] is reported as “binds”.

B3: 2p442 chimeric monospecific antibody (antibody, V domains shown)
VH: QVQLVESGGGLVQPGGSLRLSCVASGFTLDYFAIGWFRQAPGKEREGVSCISGGGSTRYADSVKGRFTISRDNAKNTVYLQMNSLTPEDTAVYYCAAARLLSRNCVPRDSGSWGQGTQVTVSS
notes: Chimeric monospecific antibody; also called parental 2p442
Consider B3, for which, in experiment [2], the “CD40 NF-κB luciferase reporter (Jurkat), RLU” value is more than 10 nM. Moreover, the binding result with human OX40 protein is listed as “no binding (tested: 100 nM (highest concentration))”. Further, in the experiment with human 4-1BB protein, the binding result was “no binding (tested: 100 nM (highest concentration))”. In the experiment with human CD40-His protein [3], this molecule registered an equilibrium dissociation constant (Kd) of 0.0504 µM, a koff of 0.0269 s⁻¹ and a kon of 534000 M⁻¹ s⁻¹. In addition, in experiment [4], the “EC50 (read off the curve)” value is approximately 0.0002 µM. The EC50 in [5] stood at 0.0003 µM. The EC50 with human CD40-His protein [6] was found to be 0.00195 µM.

B4: 2p442z9 humanized monoclonal antibody (antibody, V domains shown)
VH: B3 VH with Q13K, V23A, L29F, R45L, T77S, T86R, A97R, Q118L
notes: Humanized monoclonal antibody captured on AHC biosensor; also called VHHz9
As to B4, in the experiment with human CD40-His protein [3], the Kd stood at 0.0348 µM, the koff was found to be 0.0125 s⁻¹ and the kon amounted to 357000 M⁻¹ s⁻¹. The “EC50 (read off the curve)” value in experiment [4] was approximately 0.0002 µM.

B5: 2p442z10 humanized monoclonal antibody (antibody, V domains shown)
VH: B3 VH with Q13K, V23A, L29F, R45L, T77S, T86R, Q118L
notes: Humanized monoclonal antibody captured on AHC biosensor; also called VHHz10
Consider B5, for which, in the experiment with human CD40-His protein [3], binding was put at a Kd of 0.0696 µM, the koff amounted to 0.0337 s⁻¹ and the kon was 485000 M⁻¹ s⁻¹. In experiment [4], the “EC50 (read off the curve)” value was approximately 0.0002 µM.

B6: 2p442z8 humanized monoclonal antibody (antibody, V domains shown)
VH: B3 VH with Q13K, V23A, L29F, E44G, T77S, T86R, A97R, Q118L
notes: Humanized monoclonal antibody captured on AHC biosensor; also called VHHz8
In the experiment with human CD40-His protein [3], B6 came in with a Kd of 0.0567 µM, a koff of 0.0119 s⁻¹ and an on-rate constant (kon) of 210000 M⁻¹ s⁻¹. The half-maximal effective concentration (EC50 (read off the curve)) in experiment [4] was approximately 0.0002 µM.

B7: 42p155z2 humanized monoclonal antibody (antibody, V domains shown)
VH: EVQLVESGGGLVQPGGSLRLSCAASGFAFRSYTMSWVRQAPGKGLEWVSTITHNGAITTYAESAQGRFTISRDNSKNTLYLQMNSLRAEDTAVYYCAQGGGSNYYRESWGQGTQVTVSS
notes: Humanized monoclonal antibody captured on Protein A; also called VHHz2
In the experiment with human CD40-His protein [7], B7 returned a Kd of 0.186 µM, a koff of 0.0368 s⁻¹ and a kon of 198000 M⁻¹ s⁻¹.

B8: 42p155z3 humanized monoclonal antibody (antibody, V domains shown)
VH: B7 VH with A88P
notes: Humanized monoclonal antibody captured on Protein A; also called VHHz3
In the experiment with human CD40-His protein [7], B8 came in with a Kd of 0.193 µM, a koff of 0.0555 s⁻¹ and a kon of 287000 M⁻¹ s⁻¹.

In general, Kd refers to the free concentration of one partner at which half of the binding sites on the other are occupied at equilibrium, for simple one-to-one binding. By koff is commonly meant a measure of how fast the partners let go of each other. A high value points to fast dissociation. One may read the kon as the rate constant with which the complex forms. A higher kon goes with faster complex formation. Usually EC50 (read off the curve) stands for the concentration giving half of the maximal effect. The EC50 is the concentration giving half of the maximal effect.
